Measurements taken from publication doi:10.1101/2023.06.13.544862 (bioRxiv, 2023).
Ends that are not written are not given here. Me3 = trimethyl-lysine; Me2 = dimethyl-lysine

Assays:
[1] = target: JMJD3 JmjC domain labelled for microscale thermophoresis (UniProt O15054 1339-1502, labeled with Protein Labeling kit RED-NHS); assay: MST
[2] = target: GST-tagged EED, wild type (human, UniProt O75530 1-441); assay: pull-down
Chain of GST-tagged EED, wild type (O75530 whole entry): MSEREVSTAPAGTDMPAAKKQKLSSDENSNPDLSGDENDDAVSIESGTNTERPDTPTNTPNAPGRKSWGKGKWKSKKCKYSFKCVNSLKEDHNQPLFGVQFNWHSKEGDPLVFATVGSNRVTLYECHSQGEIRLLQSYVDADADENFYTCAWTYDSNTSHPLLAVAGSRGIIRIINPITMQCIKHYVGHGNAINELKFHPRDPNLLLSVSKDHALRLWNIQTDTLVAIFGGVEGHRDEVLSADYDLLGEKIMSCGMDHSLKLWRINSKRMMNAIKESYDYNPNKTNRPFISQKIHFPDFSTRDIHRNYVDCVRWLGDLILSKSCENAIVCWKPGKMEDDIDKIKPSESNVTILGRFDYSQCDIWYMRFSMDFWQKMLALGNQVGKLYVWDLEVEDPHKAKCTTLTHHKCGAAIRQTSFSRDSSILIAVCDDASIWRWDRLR

Chain of JMJD3 JmjC domain labelled for microscale thermophoresis (O15054 1339-1502): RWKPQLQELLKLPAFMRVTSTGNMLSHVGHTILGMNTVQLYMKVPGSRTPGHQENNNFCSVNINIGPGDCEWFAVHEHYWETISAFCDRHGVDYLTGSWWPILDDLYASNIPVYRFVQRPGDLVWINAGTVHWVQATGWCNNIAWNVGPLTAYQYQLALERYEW

## NARRK(Me)AAP (peptide, UniProt Q9Y3C1 25-32, looked up, also: biotin) [NOP16 aa 25-32 peptide, mono-methylated K29]
[1]
  Kd: 347 ± 224 µM

## NARRK(Me2)AAP (peptide, UniProt Q9Y3C1 25-32, looked up, also: biotin) [NOP16 aa 25-32 peptide, di-methylated K29]
[1]
  Kd: 306 ± 101 µM

## NARRKAAP (peptide, UniProt Q9Y3C1 25-32, looked up, also: biotin) [NOP16 aa 25-32 peptide, unmethylated K29]
[1]
  Kd: 103 ± 65.2 µM

B1: 6xHis-tagged NOP16 (natural protein, human, UniProt Q9Y3C1 1-178, looked up)
chain: MPKAKGKTRRQKFGYSVNRKRLNRNARRKAAPRIECSHIRHAWDHAKSVRQNLAEMGLAVDPNRAVPLRKRKVKAMEVDIEERPKELVRKPYVLNDLEAEASLPEKKGNTLSRDLIDYVRYMVENHGEDYKAMARDEKNYYQDTPKQIRSKINVYKRFYPAEWQDFLDSLQKRKMEVE
[2]
  binding result: binds

## NARRK(Me3)AAP (peptide, UniProt Q9Y3C1 25-32, looked up, also: biotin) [NOP16 aa 25-32 peptide, tri-methylated K29]
[1]
  Kd: 32.1 ± 27.4 µM
